From patent US20260184748A1 (University of Pennsylvania, published 2026) come the findings set out here.

Where no end group is shown, it is not given here.

Among the targets are HRH3 (UniProt Q9Y5N1 1-445, limits assumed); HRH1 (UniProt P35367 1-487); SSTR3 (UniProt P32745 1-418); DRD1 (UniProt P21728 1-446); FFAR1 (UniProt O14842 1-300); EDG3 (UniProt Q99500 1-378).
Common to all, as to test: cell-based or functional assay
The next assay concerns the target T1, HTR1F (UniProt P30939 1-366).
T1 sequence (looked up): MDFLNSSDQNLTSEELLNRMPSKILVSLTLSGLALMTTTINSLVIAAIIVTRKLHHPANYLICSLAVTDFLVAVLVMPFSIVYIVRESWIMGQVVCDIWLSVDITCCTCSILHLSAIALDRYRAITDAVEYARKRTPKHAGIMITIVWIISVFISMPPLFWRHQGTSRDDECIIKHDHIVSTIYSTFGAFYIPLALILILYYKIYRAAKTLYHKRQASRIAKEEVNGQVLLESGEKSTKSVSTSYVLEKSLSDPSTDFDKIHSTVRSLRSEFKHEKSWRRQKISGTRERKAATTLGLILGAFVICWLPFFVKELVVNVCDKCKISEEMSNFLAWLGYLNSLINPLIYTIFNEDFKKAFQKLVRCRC

A further assay has as its target T2, EDG6 (UniProt O95977 1-384).
T2 sequence (looked up): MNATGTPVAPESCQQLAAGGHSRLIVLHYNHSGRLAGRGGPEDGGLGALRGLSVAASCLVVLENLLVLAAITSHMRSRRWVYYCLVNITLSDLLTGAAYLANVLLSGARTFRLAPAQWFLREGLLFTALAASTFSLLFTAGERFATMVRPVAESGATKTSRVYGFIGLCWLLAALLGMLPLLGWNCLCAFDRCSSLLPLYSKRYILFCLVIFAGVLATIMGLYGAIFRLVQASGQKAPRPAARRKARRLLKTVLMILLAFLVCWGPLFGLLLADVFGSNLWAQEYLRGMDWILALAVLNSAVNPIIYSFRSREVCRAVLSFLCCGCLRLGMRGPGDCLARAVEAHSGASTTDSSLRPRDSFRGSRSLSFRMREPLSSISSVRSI

Another assay concerns the target T3, CHRM1 (UniProt P11229 1-460).
T3 sequence (looked up): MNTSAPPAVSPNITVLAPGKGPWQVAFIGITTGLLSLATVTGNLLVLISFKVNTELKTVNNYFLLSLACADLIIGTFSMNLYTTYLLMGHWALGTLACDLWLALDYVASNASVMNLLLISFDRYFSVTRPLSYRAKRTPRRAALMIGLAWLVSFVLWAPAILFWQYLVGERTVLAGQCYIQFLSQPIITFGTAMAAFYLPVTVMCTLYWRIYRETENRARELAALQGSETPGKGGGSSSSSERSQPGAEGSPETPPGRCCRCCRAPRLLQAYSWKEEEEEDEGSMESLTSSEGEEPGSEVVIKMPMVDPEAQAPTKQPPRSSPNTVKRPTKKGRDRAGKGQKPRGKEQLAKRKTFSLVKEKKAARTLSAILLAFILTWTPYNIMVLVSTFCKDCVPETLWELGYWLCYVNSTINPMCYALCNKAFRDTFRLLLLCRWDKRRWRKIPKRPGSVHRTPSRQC

For another assay, the target named is T4, PTHR1 (UniProt Q03431 27-593).
T4 sequence (looked up): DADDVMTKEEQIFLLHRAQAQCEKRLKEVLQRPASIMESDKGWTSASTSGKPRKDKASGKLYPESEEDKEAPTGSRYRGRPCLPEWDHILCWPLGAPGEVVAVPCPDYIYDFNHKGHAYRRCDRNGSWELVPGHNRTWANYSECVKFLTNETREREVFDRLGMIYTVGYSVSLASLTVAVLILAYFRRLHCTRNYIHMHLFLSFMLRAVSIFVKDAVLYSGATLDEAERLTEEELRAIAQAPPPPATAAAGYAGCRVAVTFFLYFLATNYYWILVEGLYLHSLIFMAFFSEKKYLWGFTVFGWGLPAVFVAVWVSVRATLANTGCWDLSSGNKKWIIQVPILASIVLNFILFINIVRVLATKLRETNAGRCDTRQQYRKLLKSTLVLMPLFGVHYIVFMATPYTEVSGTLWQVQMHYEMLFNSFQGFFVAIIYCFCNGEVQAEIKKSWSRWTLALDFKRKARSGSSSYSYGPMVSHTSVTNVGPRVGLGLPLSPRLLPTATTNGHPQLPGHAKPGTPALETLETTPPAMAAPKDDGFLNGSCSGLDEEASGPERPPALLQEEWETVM

Another assay addresses T5, GALR1 (UniProt P47211 1-349).
T5 sequence (looked up): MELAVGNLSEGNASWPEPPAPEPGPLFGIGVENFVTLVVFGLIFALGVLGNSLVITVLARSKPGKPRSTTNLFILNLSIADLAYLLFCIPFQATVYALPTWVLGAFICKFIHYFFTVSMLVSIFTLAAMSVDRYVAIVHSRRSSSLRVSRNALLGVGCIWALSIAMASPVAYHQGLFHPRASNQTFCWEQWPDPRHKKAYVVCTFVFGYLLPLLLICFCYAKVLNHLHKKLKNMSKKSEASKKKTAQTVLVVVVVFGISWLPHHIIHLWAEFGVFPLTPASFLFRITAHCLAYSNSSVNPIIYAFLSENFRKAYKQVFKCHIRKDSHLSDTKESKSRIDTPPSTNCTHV

Another assay concerns the target T6, CCR7 (UniProt P32248 25-378).
T6 sequence (looked up): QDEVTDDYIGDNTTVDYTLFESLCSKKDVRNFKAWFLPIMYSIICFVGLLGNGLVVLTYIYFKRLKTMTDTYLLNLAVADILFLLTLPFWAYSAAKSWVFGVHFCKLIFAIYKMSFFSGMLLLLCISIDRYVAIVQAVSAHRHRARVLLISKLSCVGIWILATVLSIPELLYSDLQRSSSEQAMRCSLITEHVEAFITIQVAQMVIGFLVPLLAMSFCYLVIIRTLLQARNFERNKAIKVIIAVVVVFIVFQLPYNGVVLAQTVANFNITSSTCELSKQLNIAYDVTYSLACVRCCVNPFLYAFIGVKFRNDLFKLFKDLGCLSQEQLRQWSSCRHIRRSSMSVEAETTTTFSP

HRH3, sequence (Q9Y5N1 whole entry): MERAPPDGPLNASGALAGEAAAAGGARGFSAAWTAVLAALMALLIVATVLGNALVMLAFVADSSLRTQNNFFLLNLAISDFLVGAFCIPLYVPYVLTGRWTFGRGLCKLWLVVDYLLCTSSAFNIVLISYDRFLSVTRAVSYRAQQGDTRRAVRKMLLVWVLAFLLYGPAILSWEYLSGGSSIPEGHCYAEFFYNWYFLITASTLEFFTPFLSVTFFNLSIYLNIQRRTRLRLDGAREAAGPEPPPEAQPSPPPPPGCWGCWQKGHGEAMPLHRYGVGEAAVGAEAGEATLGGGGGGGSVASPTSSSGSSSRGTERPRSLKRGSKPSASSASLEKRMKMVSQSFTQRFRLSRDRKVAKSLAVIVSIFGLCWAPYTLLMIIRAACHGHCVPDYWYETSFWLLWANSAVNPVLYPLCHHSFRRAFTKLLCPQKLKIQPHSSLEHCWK
FFAR1, sequence (O14842 whole entry): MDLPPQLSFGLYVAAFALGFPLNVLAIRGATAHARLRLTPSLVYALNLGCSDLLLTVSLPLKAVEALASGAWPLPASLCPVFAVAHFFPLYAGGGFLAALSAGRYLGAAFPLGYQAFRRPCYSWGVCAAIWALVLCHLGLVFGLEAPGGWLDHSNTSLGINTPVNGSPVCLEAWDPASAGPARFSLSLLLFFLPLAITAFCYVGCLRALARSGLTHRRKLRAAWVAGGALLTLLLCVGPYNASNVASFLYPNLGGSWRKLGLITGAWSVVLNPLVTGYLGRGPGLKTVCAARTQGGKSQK
HRH1, sequence (P35367 whole entry): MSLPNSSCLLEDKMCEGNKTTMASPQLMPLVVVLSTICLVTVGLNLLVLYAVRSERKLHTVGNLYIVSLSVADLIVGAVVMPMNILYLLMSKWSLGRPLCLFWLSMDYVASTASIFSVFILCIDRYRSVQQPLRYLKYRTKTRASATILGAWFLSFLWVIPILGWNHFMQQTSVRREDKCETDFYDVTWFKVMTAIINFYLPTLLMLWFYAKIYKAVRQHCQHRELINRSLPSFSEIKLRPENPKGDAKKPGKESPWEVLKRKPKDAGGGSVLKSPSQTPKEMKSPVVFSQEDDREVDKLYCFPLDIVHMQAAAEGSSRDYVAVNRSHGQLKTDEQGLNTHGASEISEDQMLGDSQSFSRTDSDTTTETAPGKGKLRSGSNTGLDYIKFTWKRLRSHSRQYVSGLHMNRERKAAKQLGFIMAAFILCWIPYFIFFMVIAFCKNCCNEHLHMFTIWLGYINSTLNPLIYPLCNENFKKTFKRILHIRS
EDG3, sequence (Q99500 whole entry): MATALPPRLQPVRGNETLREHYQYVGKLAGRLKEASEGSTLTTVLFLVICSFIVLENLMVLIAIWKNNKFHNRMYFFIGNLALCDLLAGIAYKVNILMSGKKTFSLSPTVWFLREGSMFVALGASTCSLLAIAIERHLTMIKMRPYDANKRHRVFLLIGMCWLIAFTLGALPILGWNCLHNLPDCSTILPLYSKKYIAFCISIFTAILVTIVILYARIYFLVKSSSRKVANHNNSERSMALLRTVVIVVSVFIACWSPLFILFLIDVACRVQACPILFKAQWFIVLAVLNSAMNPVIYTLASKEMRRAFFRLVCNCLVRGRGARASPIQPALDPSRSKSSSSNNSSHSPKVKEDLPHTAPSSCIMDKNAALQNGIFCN
SSTR3, sequence (P32745 whole entry): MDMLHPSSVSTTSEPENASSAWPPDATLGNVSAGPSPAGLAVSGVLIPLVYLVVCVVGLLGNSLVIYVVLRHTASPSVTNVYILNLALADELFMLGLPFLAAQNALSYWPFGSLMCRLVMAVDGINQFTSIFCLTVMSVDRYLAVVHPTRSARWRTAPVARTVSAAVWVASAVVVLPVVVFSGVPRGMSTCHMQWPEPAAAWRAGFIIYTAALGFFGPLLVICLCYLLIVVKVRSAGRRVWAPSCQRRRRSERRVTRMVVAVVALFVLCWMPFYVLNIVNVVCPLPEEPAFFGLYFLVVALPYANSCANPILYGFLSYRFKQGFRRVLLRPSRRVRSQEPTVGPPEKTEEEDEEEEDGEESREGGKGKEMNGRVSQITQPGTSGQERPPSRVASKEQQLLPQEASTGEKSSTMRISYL
DRD1, sequence (P21728 whole entry): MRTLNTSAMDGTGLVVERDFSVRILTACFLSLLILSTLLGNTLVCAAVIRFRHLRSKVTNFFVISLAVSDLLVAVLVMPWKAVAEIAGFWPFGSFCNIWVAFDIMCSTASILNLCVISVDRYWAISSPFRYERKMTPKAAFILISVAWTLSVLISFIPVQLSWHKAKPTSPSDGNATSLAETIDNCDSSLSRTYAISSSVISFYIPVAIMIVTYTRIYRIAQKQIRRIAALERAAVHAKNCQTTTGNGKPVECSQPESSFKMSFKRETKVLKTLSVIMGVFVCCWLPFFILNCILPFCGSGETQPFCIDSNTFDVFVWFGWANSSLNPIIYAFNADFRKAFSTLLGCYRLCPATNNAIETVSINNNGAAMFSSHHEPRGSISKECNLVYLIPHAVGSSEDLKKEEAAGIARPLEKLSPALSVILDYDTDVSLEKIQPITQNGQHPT

Turning to QATVGDVNTDRPGLLDLK (also: synthesised on Rink amide resin, C-terminal amide not given here outright) [octadecaneuropeptide (ODN)], the “% Activity, arrestin, antagonist mode, 2.5 uM” value was -8.6% with HRH3; -38.5% with HRH1; 4.2% with SSTR3; -23.3% with HTR1F; 5.7% with DRD1; 4.5% with EDG6. Further, the “% Activity, arrestin, antagonist mode, 2.5 uM” value is 9.3% with CHRM1; -5.7% with PTHR1; -3.9% in the assay with FFAR1; 15.4% with EDG3; -22.5% with GALR1; -19.2% with CCR7.
